The chains are these.
T1: ribosomal protein bS1 of the M. smegmatis 70S ribosome (M. smegmatis (mc2155), UniProt A0QYY6 1-479)
T1 sequence: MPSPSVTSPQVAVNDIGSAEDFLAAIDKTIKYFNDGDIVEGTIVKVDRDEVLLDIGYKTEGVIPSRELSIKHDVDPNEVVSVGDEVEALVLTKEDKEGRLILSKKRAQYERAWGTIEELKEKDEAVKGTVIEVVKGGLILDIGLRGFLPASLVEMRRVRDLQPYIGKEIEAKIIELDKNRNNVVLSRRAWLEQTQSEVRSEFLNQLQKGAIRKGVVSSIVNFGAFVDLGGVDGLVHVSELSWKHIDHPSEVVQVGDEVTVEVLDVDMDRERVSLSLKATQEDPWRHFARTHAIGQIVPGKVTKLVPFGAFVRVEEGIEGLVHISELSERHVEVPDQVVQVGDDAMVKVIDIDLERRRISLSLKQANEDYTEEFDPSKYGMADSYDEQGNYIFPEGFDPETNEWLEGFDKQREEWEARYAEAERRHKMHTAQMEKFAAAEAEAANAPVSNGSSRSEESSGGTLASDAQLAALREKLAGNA

B1: ribosomal protein uS11 of the M. smegmatis 70S ribosome (natural protein)
chain: not shown
B2: ribosomal protein uS9 of the M. smegmatis 70S ribosome (natural protein)
chain: MTDVTETEVVTESAEPREPVIIDRPIQTVGRRKEAVVRVRLVPGTGQFNLDGRTLENYFPNKVHQQLIKAPLVTVDRVDQFDIYAHLDGGGPSGQAGALRLAIARALILVQPEDRPALKKAGFLTRDPRAIERKKYGLKKARKAPQYSKR
B3: ribosomal protein uS2 of the M. smegmatis 70S ribosome (natural protein)
chain: MAVVTMKQLLDSGAHFGHQTRRWNPKMKRFIFTDRNGIYIIDLQQTLTYIDKAYEFVKETVAHGGTVLFVGTKKQAQESIAEEATRVGMPYVNQRWLGGMLTNFSTVHKRLQRLKELEAMEQTGGFEGRTKKEILMLTREKNKLERSLGGIRDMQKVPSAVWVVDTNKEHIAVGEARKLGIPVIAILDTNCDPDVVDYPIPGNDDAIRSAALLTKVIASAVAEGLQARAGQGSGEKPAEGAEPLAEWEQELLAGATAGAADASAEGAAAPESSTDAS
B4: RafH (ribosome associated factor under hypoxia), M. smegmatis MSMEG_3935 (natural protein)
chain: MDVDVSTDGELPGAAEYAREKIGRLSRRAHRPVLHARVRLTRHGDPAVERPVIAQANLDVNGRQVRAQVEGVNAREAVDRLEARLRSRLERIAEHWEARRGGVPAEAGREWRHESEPARRPGYFPRPPEERRIIRRKSFSMVPCTVDEAALEMEMLDYDFHLFTEKGTGFAAVLYKGGPTGYRLVLVIPVPADELSPFEKPITISTHPAPCLTQRDAVERLGLLGLPFLFYIDAAEGRASVIYRRYDGHYGLITPADG

The target in experiment [1] is B4. Nature of the experiment: cryo-EM structure.
Experiment [2] deals with T1, ribosomal protein bS1 of the M. …. Nature of the experiment: cryo-EM structure.

With B1, in experiment [1], the binding result is given as “binds”.
Same read-out and setting: the value for B2 was “binds”.
Regarding B3, the binding result in experiment [2] is recorded as “binds”.
On the same count and under the same terms, in the case of B4 it was “binds”.

The values are drawn from article doi:10.1101/2023.04.18.537051 (bioRxiv, 2023).
